# Data: PMC10397247
# T1: 4H331-bH
# T1 chain: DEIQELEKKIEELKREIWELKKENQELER
# T2: 4H2618-bH
# T2 chain: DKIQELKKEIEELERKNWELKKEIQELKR
# T3: 4H883-bH
# T3 chain: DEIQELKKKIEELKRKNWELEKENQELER
# T4: 4H3354-bH
# T4 chain: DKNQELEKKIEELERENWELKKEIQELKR
# T5: 4H3185-bH
# T5 chain: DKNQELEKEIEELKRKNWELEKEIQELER
# T6: 4H2442-bH
# T6 chain: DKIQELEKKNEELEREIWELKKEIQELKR
# T7: 4H3427-bH
# T7 chain: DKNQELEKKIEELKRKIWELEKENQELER
# T8: 4H1257-bH
# T8 chain: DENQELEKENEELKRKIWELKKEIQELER
# T9: 4H953-bH
# T9 chain: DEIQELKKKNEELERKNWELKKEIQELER
# T10: 4H3782-bH
# T10 chain: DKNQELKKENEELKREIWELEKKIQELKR
# T11: 4H754-bH
# T11 chain: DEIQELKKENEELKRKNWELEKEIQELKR
# T12: 4H607-bH
# T12 chain: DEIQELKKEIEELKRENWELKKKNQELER
# T13: 4H908-bH
# T13 chain: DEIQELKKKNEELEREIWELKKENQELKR
# T14: 4H918-bH
# T14 chain: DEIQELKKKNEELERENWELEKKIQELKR
# T15: 4H338-bH
# T15 chain: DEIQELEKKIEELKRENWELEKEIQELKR
# T16: 4H3112-bH
# T16 chain: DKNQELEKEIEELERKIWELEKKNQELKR
# T17: 4H687-bH
# T17 chain: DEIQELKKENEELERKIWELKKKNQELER
# T18: 4H1845-bH
# T18 chain: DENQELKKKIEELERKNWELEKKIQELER
# T19: 4H72-bH
# T19 chain: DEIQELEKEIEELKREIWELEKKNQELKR
# T20: 4H2729-bH
# T20 chain: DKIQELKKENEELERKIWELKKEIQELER
# T21: 4H454-bH
# T21 chain: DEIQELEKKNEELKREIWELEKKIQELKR
# T22: 4H797-bH
# T22 chain: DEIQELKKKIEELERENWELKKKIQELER
# T23: 4H3855-bH
# T23 chain: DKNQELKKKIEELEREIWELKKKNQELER
# T24: 4H1828-bH
# T24 chain: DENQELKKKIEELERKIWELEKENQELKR
# T25: 4H967-bH
# T25 chain: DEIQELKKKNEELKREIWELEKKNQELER
# T26: 4H717-bH
# T26 chain: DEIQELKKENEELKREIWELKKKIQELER
# T27: 4H1446-bH
# T27 chain: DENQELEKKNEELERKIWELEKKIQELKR
# T28: 4H4001-bH
# T28 chain: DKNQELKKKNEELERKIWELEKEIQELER
# T29: 4H2667-bH
# T29 chain: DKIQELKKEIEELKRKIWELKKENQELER
# T30: 4H2576-bH
# T30 chain: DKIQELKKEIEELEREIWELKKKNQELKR
# T31: 4H3381-bN
# T31 chain: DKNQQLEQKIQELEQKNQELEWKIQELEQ
# T32: 4H568-bH
# T32 chain: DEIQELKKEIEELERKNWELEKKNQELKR
# What was measured:
# Experiment in all cases: two-hybrid library CCNG1;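 note: natural log of median RNA to DNA barcode read ratio; higher means stronger binding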
# 4H331-bH = target: T1, 4H331-bH
# 4H2618-bH = target: T2, 4H2618-bH
# 4H883-bH = target: T3, 4H883-bH
# 4H3354-bH = target: T4, 4H3354-bH
# 4H3185-bH = target: T5, 4H3185-bH
# 4H2442-bH = target: T6, 4H2442-bH
# 4H3427-bH = target: T7, 4H3427-bH
# 4H1257-bH = target: T8, 4H1257-bH
# 4H953-bH = target: T9, 4H953-bH
# 4H3782-bH = target: T10, 4H3782-bH
# 4H754-bH = target: T11, 4H754-bH
# 4H607-bH = target: T12, 4H607-bH
# 4H908-bH = target: T13, 4H908-bH
# 4H918-bH = target: T14, 4H918-bH
# 4H338-bH = target: T15, 4H338-bH
# 4H3112-bH = target: T16, 4H3112-bH
# 4H687-bH = target: T17, 4H687-bH
# 4H1845-bH = target: T18, 4H1845-bH
# 4H72-bH = target: T19, 4H72-bH
# 4H2729-bH = target: T20, 4H2729-bH
# 4H454-bH = target: T21, 4H454-bH
# 4H797-bH = target: T22, 4H797-bH
# 4H3855-bH = target: T23, 4H3855-bH
# 4H1828-bH = target: T24, 4H1828-bH
# 4H967-bH = target: T25, 4H967-bH
# 4H717-bH = target: T26, 4H717-bH
# 4H1446-bH = target: T27, 4H1446-bH
# 4H4001-bH = target: T28, 4H4001-bH
# 4H2667-bH = target: T29, 4H2667-bH
# 4H2576-bH = target: T30, 4H2576-bH
# 4H3381-bN = target: T31, 4H3381-bN
# 4H568-bH = target: T32, 4H568-bH
binder,measurement,setting,value
DENQELEKENEELKRKIWELKKEIQELER [4H1257-bH],interaction score,4H331-bH,-0.435
same,interaction score,4H2618-bH,0.0958
same,interaction score,4H883-bH,0.223
same,interaction score,4H3354-bH,-0.79
same,interaction score,4H3185-bH,-0.808
same,interaction score,4H2442-bH,-0.172
same,interaction score,4H3427-bH,0.386
same,interaction score,4H1257-bH,-1.44
same,interaction score,4H953-bH,-0.825
same,interaction score,4H3782-bH,0.911
same,interaction score,4H754-bH,-0.282
same,interaction score,4H607-bH,-0.218
same,interaction score,4H908-bH,-0.669
same,interaction score,4H918-bH,0.00985
same,interaction score,4H338-bH,-0.528
same,interaction score,4H3112-bH,-0.383
same,interaction score,4H687-bH,0.172
same,interaction score,4H1845-bH,-1.83
same,interaction score,4H72-bH,-2.61
same,interaction score,4H2729-bH,0.0373
same,interaction score,4H454-bH,1.26
same,interaction score,4H797-bH,-0.73
same,interaction score,4H3855-bH,-0.288
same,interaction score,4H1828-bH,-0.108
same,interaction score,4H967-bH,-1.63
same,interaction score,4H717-bH,-0.541
same,interaction score,4H1446-bH,-0.833
same,interaction score,4H4001-bH,-0.377
same,interaction score,4H2667-bH,-0.837
same,interaction score,4H2576-bH,0.394
same,interaction score,4H3381-bN,-0.693
same,interaction score,4H568-bH,-0.399
